# Measured values published in PMC11067741, “Crystal structure of human peptidylarginine deiminase type VI (PAD6) provides insights into its inactivity” (IUCrJ, 2024).
# Target: the molecule itself
# Experiment: SEC; analytical SEC on Superdex 200 increase 5/150GL, 20 mM Tris-HCl pH 7.5, 200 mM NaCl, 1 mM TCEP; PAD6 at 1 mg/ml, 0.3 ml/min; calibrated with protein standards
protein,measurement,value
"recombinant human peptidylarginine deiminase type VI (PAD6) V2-P694 S10E S446E (enzyme, UniProt Q6TGC4 2-694, looked up, human peptidylarginine deiminase type VI (PAD6), residues V2-P694, called a full-length construct, with the phosphomimetic mutations S10E and S446E; also called phosphomimetic PAD6; human PAD6 phosphomimic mutant; source: HEK cells, transient transfection, purified (glutathione Sepharose, TEV cleavage, reverse HisTrap, Superdex 200); not shown: His6, N-terminal, cleaved; GST, N-terminal, cleaved) VSVEGRAMEFQSIIHLSLDSPVHAVCVLGTEICLDLSGCAPQKCQCFTIHGSGRVLIDVANTVISEKEDATIWWPLSDPTYATVKMTSPSPSVDADKVSVTYYGPNEDAPVGTAVLYLTGIEVSLEVDIYRNGQVEMSSDKQAKKKWIWGPSGWGAILLVNCNPADVGQQLEDKKTKKVIFSEEITNLSQMTLNVQGPSCILKKYRLVLHTSKEESKKARVYWPQKDNSSTFELVLGPDQHAYTLALLGNHLKETFYVEAIAFPSAEFSGLISYSVSLVEESQDPSIPETVLYKDTVVFRVAPCVFIPCTQVPLEVYLCRELQLQGFVDTVTKLSEKSNSQVASVYEDPNRLGRWLQDEMAFCYTQAPHKTTSLILDTPQAADLDEFPMKYSLSPGIGYMIQDTEDHKVASMDSIGNLMVSPPVKVQGKEYPLGRVLIGSSFYPEAEGRAMSKTLRDFLYAQQVQAPVELYSDWLMTGHVDEFMCFIPTDDKNEGKKGFLLLLASPSACYKLFREKQKEGYGDALLFDELRADQLLSNGREAKTIDQLLADESLKKQNEYVEKCIHLNRDILKTELGLVEQDIIEIPQLFCLEKLTNIPSDQQPKRSFARPYFPDLLRMIVMGKNLGIPKPFGPQIKGTCCLEEKICCLLEPLGFKCTFINDFDCYLTEVGDICACANIRRVPFAFKWWKMVP",stoichiometry N,2
